The assay addresses HA-Rad18 S-Box-A (human) (UniProt Q9NS91). The assay can be described thus: co-IP.

Results on one substance are retold here after paper PMC2995173.

On to “DNA Polymerase eta (Polη) (from UniProt Q9Y253 1-713) (natural protein)”, for which the percent reduction of association relative to Rad18 WT (UV-treated cells) is > 80%.
